From publication PMC515284, “Site-specific mutagenesis of Drosophila proliferating cell nuclear antigen enhances its effects on calf thymus DNA polymerase δ” (BMC Biochemistry, 2004)

Biological target: T1, calf thymus DNA polymerase δ (two-subunit form) (bovine (endogenous in calf thymus), UniProt P28339 1-1106; P49004 1-469)
T1 construct: DNA polymerase δ larger, catalytic subunit p125, calf thymus (bovine); DNA polymerase δ smaller subunit p50, calf thymus (bovine); all experiments used the two-subunit form (p125 and p50); also called pol δ; calf thymus pol δ; source: purified from calf thymus (to apparent homogeneity)
T1 sequence (P28339 whole entry, stated change not applied, chain 1 of 2): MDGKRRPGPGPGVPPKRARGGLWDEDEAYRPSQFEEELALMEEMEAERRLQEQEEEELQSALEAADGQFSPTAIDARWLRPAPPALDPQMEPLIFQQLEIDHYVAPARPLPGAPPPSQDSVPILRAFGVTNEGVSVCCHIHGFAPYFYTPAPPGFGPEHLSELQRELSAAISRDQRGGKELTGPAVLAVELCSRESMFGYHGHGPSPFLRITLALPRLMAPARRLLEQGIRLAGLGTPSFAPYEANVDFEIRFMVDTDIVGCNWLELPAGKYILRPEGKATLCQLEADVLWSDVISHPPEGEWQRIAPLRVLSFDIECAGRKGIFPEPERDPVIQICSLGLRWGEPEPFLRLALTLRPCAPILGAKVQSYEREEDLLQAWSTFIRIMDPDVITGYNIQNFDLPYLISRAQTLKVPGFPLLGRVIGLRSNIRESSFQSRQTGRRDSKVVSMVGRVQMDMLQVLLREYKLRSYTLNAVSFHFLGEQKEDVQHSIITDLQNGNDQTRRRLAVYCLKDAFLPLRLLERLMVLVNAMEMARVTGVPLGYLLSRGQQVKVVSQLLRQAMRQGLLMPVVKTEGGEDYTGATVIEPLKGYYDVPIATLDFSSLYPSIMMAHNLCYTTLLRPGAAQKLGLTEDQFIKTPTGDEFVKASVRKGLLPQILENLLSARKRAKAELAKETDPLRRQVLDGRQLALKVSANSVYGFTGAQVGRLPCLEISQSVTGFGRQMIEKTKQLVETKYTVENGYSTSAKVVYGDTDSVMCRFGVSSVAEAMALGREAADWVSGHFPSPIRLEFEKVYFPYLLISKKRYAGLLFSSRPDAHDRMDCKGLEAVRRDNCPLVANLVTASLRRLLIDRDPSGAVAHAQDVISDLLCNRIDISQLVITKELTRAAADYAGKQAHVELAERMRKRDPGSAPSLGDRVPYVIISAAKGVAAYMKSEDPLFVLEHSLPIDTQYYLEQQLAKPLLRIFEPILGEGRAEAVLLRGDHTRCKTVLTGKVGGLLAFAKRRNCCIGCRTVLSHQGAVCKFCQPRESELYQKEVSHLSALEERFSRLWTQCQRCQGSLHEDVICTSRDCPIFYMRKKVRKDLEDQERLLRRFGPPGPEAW
T1 sequence (P49004 whole entry, stated change not applied, chain 2 of 2): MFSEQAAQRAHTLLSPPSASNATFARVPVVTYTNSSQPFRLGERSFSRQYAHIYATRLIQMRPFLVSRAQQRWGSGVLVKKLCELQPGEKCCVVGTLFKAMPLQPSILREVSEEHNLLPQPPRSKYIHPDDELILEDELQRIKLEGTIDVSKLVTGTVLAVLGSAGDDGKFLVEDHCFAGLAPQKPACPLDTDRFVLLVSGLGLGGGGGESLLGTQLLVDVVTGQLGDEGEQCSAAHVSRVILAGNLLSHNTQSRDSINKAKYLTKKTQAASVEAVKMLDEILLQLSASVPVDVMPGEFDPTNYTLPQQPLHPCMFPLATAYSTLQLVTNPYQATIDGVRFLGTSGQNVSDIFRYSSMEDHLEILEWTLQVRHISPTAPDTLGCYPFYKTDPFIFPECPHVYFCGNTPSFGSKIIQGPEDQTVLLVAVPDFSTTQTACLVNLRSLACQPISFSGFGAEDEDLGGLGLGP
Assay: native gel or EMSA; nondenaturing PAGE band mobility shift of 32P-labelled 30-21-mer template-primer (0.1 pmol) with 10 ng pol δ and 70 ng PCNA; without MgCl2, 3 mM EDTA in incubation and gel buffer; essentially qualitative; the complex holds DNA as well
Conditions: both partners purified

Binder	binding result
NH2-terminally his-tagged Drosophila PCNA with amino acids 119-133 replaced by the corresponding human sequence (other, Drosophila melanogaster | human, UniProt P17917 1-118, looked up, PCNA, Drosophila melanogaster, the stretch before the interdomain connector loop (up to residue 118); PCNA, Drosophila melanogaster, the stretch after the interdomain connector loop (from residue 134); source: E. coli M15 [pREP4], purified (Ni2+-IDA Sepharose); not shown: His tag, N-terminal, kept) MFEARLGQATILKKILDAIKDLLNEATFDCSDSGIQLQAMDNSHVSLVSLTLRSDGFDKFRCDRNLSMGMNLGSMAKILKCANNEDNVTMKAQDNADTVTIMFESANQEKVSDYEMKLMDLDVEQLGIPEQEYSCVVRMPAMEFARICRDLAQFSESVVICCTKEGVKFSASGDVGTANIKLAQTGSVDKEEEAVIIEMQEPVTLTFACRYLNAFTKATPLSTQVQLSMCADVPLVVEYAIKDLGHIRYYLAPKIEDNET	binds
NH2-terminally his-tagged Drosophila PCNA with glutamine 123 mutated to valine (natural protein, Drosophila melanogaster, UniProt P17917 1-260, looked up, proliferating cell nuclear antigen (PCNA), Drosophila melanogaster, with Q123V; also called Q123V dPCNA; Q123V; source: E. coli M15 [pREP4], purified (Ni2+-IDA Sepharose); not shown: His tag, N-terminal, kept) MFEARLGQATILKKILDAIKDLLNEATFDCSDSGIQLQAMDNSHVSLVSLTLRSDGFDKFRCDRNLSMGMNLGSMAKILKCANNEDNVTMKAQDNADTVTIMFESANQEKVSDYEMKLMNLDVEHLGIPETDFSCVVRMPAMEFARICRDLAQFSESVVICCTKEGVKFSASGDVGTANIKLAQTGSVDKEEEAVIIEMQEPVTLTFACRYLNAFTKATPLSTQVQLSMCADVPLVVEYAIKDLGHIRYYLAPKIEDNET	binds
